These results are taken from article PMC6797079.

The chains are these.
B1: sodium/iodide symporter (NIS), wild type, cerulean- or citrine-tagged [human] / itself (parent)
chain: MEAVETGERPTFGAWDYGVFALMLLVSTGIGLWVGLARGGQRSAEDFFTGGRRLAALPVGLSLSASFMSAVQVLGVPSEAYRYGLKFLWMCLGQLLNSVLTALLFMPVFYRLGLTSTYEYLEMRFSRAVRLCGTLQYIVATMLYTGIVIYAPALILNQVTGLDIWASLLSTGIICTFYTAVGGMKAVVWTDVFQVVVMLSGFWVVLARGVMLVGGPRQVLTLAQNHSRINLMDFNPDPRSRYTFWTFVVGGTLVWLSMYGVNQAQVQRYVACRTEKQAKLALLINQVGLFLIVSSAACCGIVMFVFYTDCDPLLLGRISAPDQYMPLLVLDIFEDLPGVPGLFLACAYSGTLSTASTSINAMAAVTVEDLIKPRLRSLAPRKLVIISKGLSLIYGSACLTVAALSSLLGGGVLQGSFTVMGVISGPLLGAFILGMFLPACNTPGVLAGLGAGLALSLWVALGATLYPPSEQTMRVLPSSAARCVALSVNASGLLDPALLPANDSSRAPSSGMDASRPALADSFYAISYLYYGALGTLTTVLCGALISCLTGPTKRSTLAPGLLWWDLARQTASVAPKEEVAILDDNLVKGPEELPTGNKKPPGFLPTNEDRLFFLGQKELEGAGSWTPCVGHDGGRDQQETNL

In the experiment the parent is B1. Kind of experiment: FRET. The note with it: with itself, n = 2, minimum of 20 cells analyzed in each n, read off a plot.

On to chain 1 A525F, for which the response (arbitrary units) reads like this: (HeLa cells, parent: 20) 120; (SW1736 cells, parent: 0) 30.

With chain 1 D237A, the response (arbitrary units) (HeLa cells, parent: 20) turned out to be 0 and the response (arbitrary units) (SW1736 cells, parent: 0) was -70.
